Assay results reported in IntAct's records for PubMed 20485439.

B1: Eukaryotic translation initiation factor 5 (Saccharomyces cerevisiae), P38431 (parent)
chain: MSINICRDNHDPFYRYKMPPIQAKVEGRGNGIKTAVLNVADISHALNRPAPYIVKYFGFELGAQTSISVDKDRYLVNGVHEPAKLQDVLDGFINKFVLCGSCKNPETEIIITKDNDLVRDCKACGKRTPMDLRHKLSSFILKNPPDSVSGSKKKKKAATASANVRGGGLSISDIAQGKSQNAPSDGTGSSTPQHHDEDEDELSRQIKAAASTLEDIEVKDDEWAVDMSEEAIRARAKELEVNSELTQLDEYGEWILEQAGEDKENLPSDVELYKKAAELDVLNDPKIGCVLAQCLFDEDIVNEIAEHNAFFTKILVTPEYEKNFMGGIERFLGLEHKDLIPLLPKILVQLYNNDIISEEEIMRFGTKSSKKFVPKEVSKKVRRAAKPFITWLETAESDDDEEDDE
partner: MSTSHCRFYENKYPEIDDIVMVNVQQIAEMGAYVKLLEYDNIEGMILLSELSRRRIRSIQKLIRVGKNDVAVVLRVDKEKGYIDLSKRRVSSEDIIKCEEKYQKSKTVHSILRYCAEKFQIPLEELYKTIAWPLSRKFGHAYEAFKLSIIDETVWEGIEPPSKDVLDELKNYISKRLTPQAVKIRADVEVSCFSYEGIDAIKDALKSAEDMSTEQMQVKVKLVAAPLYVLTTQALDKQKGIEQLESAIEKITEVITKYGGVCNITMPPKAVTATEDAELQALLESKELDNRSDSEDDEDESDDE
B2: Eukaryotic translation initiation factor 5 (Saccharomyces cerevisiae), P38431 (parent)
chain: B1 chain

Variants of: B1
Details: with if2a_yeast SUI2, P20459

Which “effect of a mutation on the interaction” value does the source give for MSINICRDNHDPFYRYKMPPIQAKVEGRGNGIKTAVLNVADISHALNRPAPYIVKYFGFELGAQTSISVDKDRYLVNGVHEPAKLQDVLDGFINKFVLCGSCKNPETEIIITKDNDLVRDCKACGKRTPMDLRHKLSSFILKNPPDSVSGSKKKKKAATASANVRGGGLSISDIAQGKSQNAPSDGTGSSTPQHHDEDEDELSRQIKAAASTLEDIEVKDDEWAVDMSEEAIRARAKELEVNSELTQLDEYGEWILEQAGEDKENLPSDVELYKKAAELDVLNDPKIGCVLAQCLFDEDIVNEIAEHNAFFTKILVTPEYEKNFMGGIERFLGLEHKDLIPLLPKILVQLYNNDIISEEEIMRFGTKSSKKFVPKEVSKKVRRAAKPFITFLETAESDDDEEDDE [W391F] here?
The value was “decreasing interaction”.

Variants of: B2
Details: with if2g_yeast GCD11, P32481
Sequence of if2g_yeast GCD11, P32481 (P32481 whole entry): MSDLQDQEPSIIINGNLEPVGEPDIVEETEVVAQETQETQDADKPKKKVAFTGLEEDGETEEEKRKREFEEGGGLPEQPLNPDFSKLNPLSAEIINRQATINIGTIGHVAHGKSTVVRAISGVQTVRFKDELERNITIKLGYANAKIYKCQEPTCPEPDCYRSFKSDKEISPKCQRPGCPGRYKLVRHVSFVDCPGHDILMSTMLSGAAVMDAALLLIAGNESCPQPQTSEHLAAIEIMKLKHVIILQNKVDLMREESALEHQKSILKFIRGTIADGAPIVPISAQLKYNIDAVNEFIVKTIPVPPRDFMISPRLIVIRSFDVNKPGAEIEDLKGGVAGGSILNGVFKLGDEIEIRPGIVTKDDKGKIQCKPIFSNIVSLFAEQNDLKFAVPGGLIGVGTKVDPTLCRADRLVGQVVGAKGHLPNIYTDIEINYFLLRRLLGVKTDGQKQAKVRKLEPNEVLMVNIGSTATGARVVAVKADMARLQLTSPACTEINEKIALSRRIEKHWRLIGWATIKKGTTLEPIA

With MSINICRDNHDPFYRYKMPPIQAKVEGRGNGIKTAVLNVADISHALNRPAPYIVKYFGFELGAQTSISVDKDRYLVNGVHEPAKLQDVLDGFINKFVLCGSCKNPETEIIITKDNDLVRDCKACGKRTPMDLRHKLSSFILKNPPDSVSGSKKKKKAATASANVRGGGLSISDIAQGKSQNAPSDGTGSSTPQHHDEDEDELSRQIKAAASTLEDIEVKDDEWAVDMSEEAIRARAKELEVNSELTQLDEYGEWILEQAGEDKENLPSDVELYKKAAELDVLNDPKIGCVLAQCLFDEDIVNEIAEHNAFFTKILVTPEYEKNFMGGIERFLGLEHKDLIPLLPKILVQLYNNDIISEEEIMRFGTKSSKKFVPKEVSKKVRRAAKPFITFLETAESDDDEEDDE [W391F] as the variant, how does the “effect of a mutation on the interaction” value read?
Its value is “decreasing interaction”.
